Results published in patent US20200270125A1 (OMEROS, published 2020).

T1: human MASP-3 (construct not stated) (human)
T1 construct: also called MASP-3 antigen
T1 chain: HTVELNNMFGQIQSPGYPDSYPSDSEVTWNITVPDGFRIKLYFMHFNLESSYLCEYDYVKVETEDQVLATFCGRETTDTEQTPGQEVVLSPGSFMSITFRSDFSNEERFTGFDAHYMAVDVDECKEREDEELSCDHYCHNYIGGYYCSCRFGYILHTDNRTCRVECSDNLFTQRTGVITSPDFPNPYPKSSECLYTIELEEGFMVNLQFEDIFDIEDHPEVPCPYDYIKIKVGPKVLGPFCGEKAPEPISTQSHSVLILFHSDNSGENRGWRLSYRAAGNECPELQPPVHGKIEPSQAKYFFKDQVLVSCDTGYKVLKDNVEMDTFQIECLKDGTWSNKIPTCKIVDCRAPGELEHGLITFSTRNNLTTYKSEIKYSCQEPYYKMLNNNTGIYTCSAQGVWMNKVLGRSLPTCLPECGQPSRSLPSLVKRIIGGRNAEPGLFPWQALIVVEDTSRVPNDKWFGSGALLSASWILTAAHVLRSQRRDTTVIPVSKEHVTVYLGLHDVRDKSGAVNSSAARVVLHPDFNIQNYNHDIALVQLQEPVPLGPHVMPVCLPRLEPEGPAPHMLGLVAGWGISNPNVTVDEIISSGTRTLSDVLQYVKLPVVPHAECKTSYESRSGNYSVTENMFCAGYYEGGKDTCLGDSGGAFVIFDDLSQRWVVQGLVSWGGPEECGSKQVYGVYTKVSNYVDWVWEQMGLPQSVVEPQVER

T2: human MASP-1 (construct not stated) (human, UniProt P48740 20-699, limits assumed)
T2 sequence: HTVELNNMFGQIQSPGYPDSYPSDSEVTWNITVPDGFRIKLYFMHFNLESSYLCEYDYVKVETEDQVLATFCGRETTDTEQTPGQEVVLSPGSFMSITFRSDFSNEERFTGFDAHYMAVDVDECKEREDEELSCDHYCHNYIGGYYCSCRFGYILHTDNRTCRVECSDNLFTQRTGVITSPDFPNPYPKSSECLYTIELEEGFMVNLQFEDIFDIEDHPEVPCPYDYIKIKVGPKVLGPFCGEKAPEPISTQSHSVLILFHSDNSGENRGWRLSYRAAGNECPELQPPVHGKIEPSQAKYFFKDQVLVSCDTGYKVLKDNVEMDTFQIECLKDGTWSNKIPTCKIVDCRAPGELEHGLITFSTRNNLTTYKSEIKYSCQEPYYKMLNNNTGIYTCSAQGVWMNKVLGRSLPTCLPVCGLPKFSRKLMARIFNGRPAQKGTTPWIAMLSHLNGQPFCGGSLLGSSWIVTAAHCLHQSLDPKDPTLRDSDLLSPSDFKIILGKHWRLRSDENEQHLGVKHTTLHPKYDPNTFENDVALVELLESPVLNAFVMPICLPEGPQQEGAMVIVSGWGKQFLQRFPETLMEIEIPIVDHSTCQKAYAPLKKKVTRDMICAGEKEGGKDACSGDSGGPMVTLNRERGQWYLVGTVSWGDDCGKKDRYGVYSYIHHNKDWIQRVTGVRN

B1: 4D5 Parental Fab (Fab, V domains shown)
VH: QVQLKQSGPELVKPGASVKLSCKASGYTFTTDDINWVKQRPGQGLEWIGWIYPRDDRTKYNDKFKDKATLTVDTSSNTAYMDLHSLTSEDSAVYFCSSLEDTYWGQGTLVAVSS
VL: DIVMTQSPSSLAVSAGEKVTMTCKSSQSLLNSRTRKNYLAWYQQKPGQSPKLLIYWASTRESGVPDRFTGSGSGTDFSLTISSVQAEDLAVYYCKQSYNLYTFGGGTKLEIKR
notes: Monovalent Fab; also called 4D5 Fab
B2: MASP-3 clone D14 (antibody, human IgG1, V domains shown)
VH: AVTLDESGGGLQTPGGALSLVCKASGFTFSSYAMHWVRQAPGKGLEWVAGIYKSGAGTNYAPAVKGRATISRDNGQSTVRLQLNNLRAEDTGTYYCAKTTGSGCSSGYRAEYIDAWGHGTEVIVSS
VL: ALTQPASVSANPGETVKITCSGGGSYAGSYYYGWYQQKAPGSAPVTLIYYNNKRPSDIPSRFSGSLSGSTNTLTITGVRADDEAVYFCGSADNSGAAFGAGTTLTVL
notes: Chicken V regions from the DTLacO platform; also called mAbD14; mAb D14
B3: MASP-1 clone 1E10 (antibody, human IgG1, V domains shown)
VH: AVTLDESGGGLQTPGGALSLVCKASGFTFSSYDMVWVRQAPGKGLEFVAGISRNDGRYTEYGSAVKGRATISRDNGQSTVRLQLNNLRAEDTATYYCARDAGGSAYWFDAGQIDAWGHGTEVIVSS
VL: B2 VL
notes: Chicken V regions from the DTLacO platform; also called mAb 1E10; mAb1E10

Legend:
[1] = molecular target: T1, human MASP-3 (construct not stated); test: ELISA, monovalent Fab
[2] = molecular target: T1, human MASP-3 (construct not stated); test: cross-species binding experiments
[3] = molecular target: T2, human MASP-1 (construct not stated); test: DTLacO screen

Row | Binder | EC50 [1] | avidity [2] | binding result [3]
1 | B1 | 0.107 nM | < 500 pM | 
2 | B2 |  |  | binds
3 | B3 |  |  | binds
